Blank lines part the entries; values can stand above or below the binder they belong to.
Legend:
[1] = target: human MSLN on Oval-Citar-3-MSLN cells (human) (UniProt Q13421); test: cell ELISA on fixed Oval-Citar-3-MSLN cells, HRP anti-human IgG Fc detection
[2] = target: human MSLN on Oval-Citar-3-MSLN cells (human) (UniProt Q13421); test: flow cytometry on fixed Oval-Citar-3-MSLN cells, FITC anti-human IgG Fc detection

Sequence of human MSLN on Oval-Citar-3-MSLN cells (human) (Q13421 other isoform, or with tags, fused parts or gaps limits assumed): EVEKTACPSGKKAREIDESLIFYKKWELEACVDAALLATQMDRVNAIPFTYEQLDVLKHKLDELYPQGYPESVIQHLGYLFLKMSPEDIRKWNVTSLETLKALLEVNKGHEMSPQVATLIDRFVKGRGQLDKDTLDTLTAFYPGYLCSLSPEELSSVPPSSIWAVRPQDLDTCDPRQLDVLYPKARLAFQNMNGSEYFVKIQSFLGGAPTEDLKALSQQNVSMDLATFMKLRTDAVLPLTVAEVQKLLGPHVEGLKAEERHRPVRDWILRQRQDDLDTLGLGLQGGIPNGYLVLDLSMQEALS

EC50 [1]: 0.011 µg/mL
EC50 [2]: 0.153 µg/mL
B1: RC88 antibody (antibody, human IgG1, kappa, V domains shown)
VH: EVQLVESGGGLVQPGGSLRLSCAASGFDFSRYWMSWVRQAPGKGLEWIGEINPDSSTIVYTPSLKDKFIISRDNAKNTLYLQMNSLRAEDTALYYCARRGSHYYGYRTGYFDVWGAGTTVTVSS
VL: DVVMTQSPAFLSVTPGEKVTMTCSASSSVSYMYWHQQKPDQAPKLLIYDTSNLASGVPVRFSGSGSGTDFTFTISRMEAEDAATYYCQQWSSYPPTFGGGTKVEIKR

EC50 [1]: 0.0197 µg/mL
EC50 [2]: 0.251 µg/mL
B2: RC88-Py-MAA-Val-Cit-PAB-MMAE (antibody, human IgG1, kappa, V domains shown)
VH: B1 VH
VL: B1 VL
modifications: Py-MAA-Val-Cit-PAB-MMAE linker-drug coupled to cysteine thiols of reduced disulfide bonds (bridging linker); positions not given; DAR 3.95

Source: patent publication US20220056147A1
